From patent US20250177530A1, “MOLECULES THAT BIND TO ENPP1 POLYPEPTIDES” (UNIVERSITY OF PITTSBURGH - OF THE COMMONWEALTH SYSTEM OF …, priority 2022, published 2025) come the findings set out here.

Experiment [1] addresses human ENPP1 on the cell surface (293T-ENPP1 cells, HepG2 cells) (human) (UniProt P22413). In words: flow cytometry on HepG2 cells, APC-A against SSC-A.
Experiment [2] shares this target. Put plainly: flow cytometry on 293T-ENPP1 cells, APC-A against SSC-A.

Chain of human ENPP1 on the cell surface (293T-ENPP1 cells, HepG2 cells) (human) (P22413 whole entry): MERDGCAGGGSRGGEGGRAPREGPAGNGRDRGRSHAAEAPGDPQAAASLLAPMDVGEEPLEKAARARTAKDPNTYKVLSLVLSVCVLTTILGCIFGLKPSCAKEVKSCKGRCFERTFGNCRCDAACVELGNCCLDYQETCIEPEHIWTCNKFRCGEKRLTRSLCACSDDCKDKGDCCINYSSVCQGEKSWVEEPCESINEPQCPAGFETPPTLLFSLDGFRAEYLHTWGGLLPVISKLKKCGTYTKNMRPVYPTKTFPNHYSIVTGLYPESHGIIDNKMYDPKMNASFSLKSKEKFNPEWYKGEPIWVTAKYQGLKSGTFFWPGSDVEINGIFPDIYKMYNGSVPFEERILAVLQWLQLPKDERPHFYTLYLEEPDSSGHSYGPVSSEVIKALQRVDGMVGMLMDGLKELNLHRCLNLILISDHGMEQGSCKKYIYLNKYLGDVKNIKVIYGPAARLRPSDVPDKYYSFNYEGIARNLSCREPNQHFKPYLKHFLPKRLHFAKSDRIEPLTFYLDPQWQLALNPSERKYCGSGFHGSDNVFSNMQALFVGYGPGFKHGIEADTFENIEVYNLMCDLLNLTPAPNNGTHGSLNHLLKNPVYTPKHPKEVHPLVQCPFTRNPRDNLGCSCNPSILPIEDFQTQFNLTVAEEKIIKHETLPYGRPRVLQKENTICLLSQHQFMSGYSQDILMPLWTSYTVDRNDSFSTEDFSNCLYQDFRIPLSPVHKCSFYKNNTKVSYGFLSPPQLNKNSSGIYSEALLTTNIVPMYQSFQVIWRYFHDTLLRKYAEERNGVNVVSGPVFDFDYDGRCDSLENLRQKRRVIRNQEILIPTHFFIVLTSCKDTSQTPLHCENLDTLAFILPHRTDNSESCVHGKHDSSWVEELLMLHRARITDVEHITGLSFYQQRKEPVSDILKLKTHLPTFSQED

Consider Isotype Ctrl (antibody), for which the percent of cells in the APC-positive gate in experiment [1] and in experiment [2] was 0.4% each time.
